Peptide exchange yield data for 61 molecules are collected here from patent US20190040115A1 (IMMATICS BIOTECHNOLOGIES, published 2019).

The experiment addresses T1, HLA-A*02:01 (human).
T1 construct: captured on streptavidin plates; also called peptide-receptive MHC molecules
The experiment can be described thus: UV peptide exchange ELISA (anti-b2m); yield grade: + >10%, ++ >20%, +++ >50, ++++ >75%. An excerpt:
Candidate peptides for T cell based therapies according to the present invention were further tested for their MHC binding capacity (affinity). The individual peptide-MHC complexes were produced by UV-ligand exchange, where a UV-sensitive peptide is cleaved upon UV-irradiation, and exchanged with the peptide of interest as analyzed. Only peptide candidates that can effectively bind and stabilize the peptide-receptive MHC molecules prevent dissociation of the MHC complexes. To determine the yield of the exchange reaction, an ELISA was performed based on the detection of the light chain (β2m) of stabilized MHC complexes. The assay was performed as generally described in Rodenko et al. (Rodenko et al., 2006).
96 well MAXISorp plates (NUNC) were coated over night with 2 ug/ml streptavidin in PBS at room temperature, washed 4× and blocked for 1 h at 37° C. in 2% BSA containing blocking buffer. Refolded HLA-A*02:01/MLA-001 monomers served as standards, covering the range of 15-500 ng/ml. Peptide-MHC monomers of the UV-exchange reaction were diluted 100 fold in blocking buffer. Samples were incubated for 1 h at 37° C., washed four times, incubated with 2 ug/ml HRP conjugated anti-β2m for 1 h at 37° C., washed again and detected with TMB solution that is stopped with […]. Absorption was measured at 450 nm. Candidate peptides that show a high exchange yield (preferably higher than 50%, most preferred higher than 75%) are generally preferred for a generation and production of antibodies or fragments thereof, and/or T cell receptors or fragments thereof, as they show sufficient avidity to the MHC molecules and prevent dissociation of the MHC complexes.
For orientation: ELISA stands for enzyme-linked immunosorbent assay.

Bounds are passed on as bounds.

For KVSGVILSV, the peptide exchange yield is greater than 75%.

Regarding FLPAGIVAV, the peptide exchange yield is greater than 75%.

As to ILADATAKM, the peptide exchange yield is greater than 75%.

On to KLFTQIFGV, for which the peptide exchange yield was greater than 75%.

Consider TLLEGLTEL, for which the peptide exchange yield was in the range of 50 to 75%.

Consider VQIGDIVTV, for which the peptide exchange yield was greater than 75%.

For the molecule LLEEINHFL, the peptide exchange yield lay in the range of 50 to 75%.

Regarding RVAFKINSV, the peptide exchange yield fell in the range of 50 to 75%.

Consider TLLESIQHV, for which the peptide exchange yield is greater than 75%.

On to SLKSKVLSV, for which the peptide exchange yield is greater than 75%.

As for TLYEQEIEV, the peptide exchange yield is greater than 75%.

Take SLIDRTIKM: the peptide exchange yield fell in the range of 50 to 75%.

On to HLFETISQA, for which the peptide exchange yield is 50 to 75%.

For the molecule TLGTATFTV, the peptide exchange yield was greater than 75%.

As to ALDDTVLQV, the peptide exchange yield lay within 50 to 75%.

Turning to GLIDLEANYL, the peptide exchange yield is greater than 75%.

With ALDSGFNSV, the peptide exchange yield is greater than 75%.

Take ALIEVLQPLI: the peptide exchange yield is greater than 75%.

As for TLDGNPFLV, the peptide exchange yield lay within 50 to 75%.

On to GLFPSNFVTA, for which the peptide exchange yield is greater than 75%.

Consider ALEPIDITV, for which the peptide exchange yield was in the range of 50 to 75%.

FAYDGKDYIA: the peptide exchange yield is greater than 75%.

For the molecule ALFFQLVDV, the peptide exchange yield fell in the range of 20 to 50%.

As to LLYEDIPDKV, the peptide exchange yield lay in the range of 50 to 75%.

Turning to SIIPPLFTV, the peptide exchange yield was greater than 75%.

With ALMDTDGSGKLNL, the peptide exchange yield was in the range of 50 to 75%.

In the case of SILDGLIHL, the peptide exchange yield is 50 to 75%.

For GVVHGVATV, the peptide exchange yield was greater than 75%.

Regarding KLKEAVEAI, the peptide exchange yield lay in the range of 20 to 50%.

Consider KLAEALYIA, for which the peptide exchange yield lay within 50 to 75%.

Regarding SLPRPTPQA, the peptide exchange yield was in the range of 50 to 75%.

In the case of RMDEEFTKI, the peptide exchange yield was 50 to 75%.

As for VLFSSPPVILL, the peptide exchange yield was greater than 75%.

Turning to YLDKMNNNI, the peptide exchange yield is greater than 75%.

For AIHTAILTL, the peptide exchange yield lay within 20 to 50%.

Take ALDDIIYRA: the peptide exchange yield lay in the range of 50 to 75%.

GLCDSIITI: the peptide exchange yield was greater than 75%.

As for ALDEPTTNL, the peptide exchange yield lay within 50 to 75%.

On to KALQFLEEV, for which the peptide exchange yield was greater than 75%.

As for EVVDKINQV, the peptide exchange yield lay within 10 to 20%.

For FLDSLIYGA, the peptide exchange yield was greater than 75%.

For VLLGENVEL, the peptide exchange yield fell in the range of 50 to 75%.

As to TILATVPLV, the peptide exchange yield is greater than 75%.

As for VLDSVDVRL, the peptide exchange yield was greater than 75%.

As for KVLGDVIEV, the peptide exchange yield is greater than 75%.

On to KLLAATLLL, for which the peptide exchange yield is greater than 75%.

Turning to YSDDIPHAL, the peptide exchange yield lay within 20 to 50%.

In the case of RLMANPEALKI, the peptide exchange yield lay within 50 to 75%.

On to FLDHEMVFL, for which the peptide exchange yield was greater than 75%.

For the molecule TLDDIMAAV, the peptide exchange yield lay in the range of 50 to 75%.

On to IAAGIFNDL, for which the peptide exchange yield lay within 10 to 20%.

On to VLAVLGAVVAV, for which the peptide exchange yield is 50 to 75%.

Turning to VISPHGIASV, the peptide exchange yield is greater than 75%.

In the case of ALDDISESI, the peptide exchange yield is greater than 75%.

With VVVDPIQSV, the peptide exchange yield lay in the range of 50 to 75%.

GLAGFFASV: the peptide exchange yield is greater than 75%.

On to KLIPSIIVL, for which the peptide exchange yield was in the range of 50 to 75%.

Consider SVALVIHNV, for which the peptide exchange yield is greater than 75%.

As for SLADVVDTL, the peptide exchange yield was greater than 75%.

FLNEDISKL: the peptide exchange yield is 50 to 75%.

For ILWDTLLRL, the peptide exchange yield is greater than 75%.
